system: Escherichia coli TOP10; test: shrunken log2 fold change of peptide-encoding DNA abundance (4.5 h post-induction vs induction); higher = less antimicrobial activity (less host growth inhibition); conditions: time post-induction: 4.5 h; library: site-saturation at positions 5, 18, 19, 20
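Note: peptides expressed intracellularly from a pBAD plasmid library in pooled LB shake-flask culture, induced with 0.3% L-arabinose, DNA abundance read by NGS, three biological replicates, DESeq2 with apeglm shrinkage.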

| Sequence | shrunken log2 fold change |
| --- | --- |
| RRIRCRPPRLPRPRPRPIRKPRP | -0.126 |
| RRIRHRPPRLPRPRPRPVFHPRP | -0.345 |
| RRIRKRPPRLPRPRPRPVYRPRP | -0.667 |
| RRIRVRPPRLPRPRPRPCYVPRP | -0.0957 |
| RRIRSRPPRLPRPRPRPGMYPRP | 0.0605 |
| RRIRQRPPRLPRPRPRPPTLPRP | -4.2e-05 |
| RRIRLRPPRLPRPRPRPCPVPRP | -0.393 |
| RRIRHRPPRLPRPRPRPVTTPRP | 0.0639 |
| RRIRQRPPRLPRPRPRPTDEPRP | -0.131 |
| RRIRRRPPRLPRPRPRPAGAPRP | 0.497 |
| RRIRKRPPRLPRPRPRPAHIPRP | -0.137 |
| RRIRFRPPRLPRPRPRPFNCPRP | -0.113 |
| RRIRTRPPRLPRPRPRPQTTPRP | 0.0779 |
| RRIRHRPPRLPRPRPRPSPTPRP | 0.0862 |
| RRIRFRPPRLPRPRPRPEKHPRP | 0.176 |
| RRIRERPPRLPRPRPRPCWCPRP | -0.0114 |
| RRIRSRPPRLPRPRPRPHDQPRP | 0.276 |
| RRIRTRPPRLPRPRPRPGAFPRP | 2.41 |
| RRIRNRPPRLPRPRPRPYESPRP | -0.829 |
| RRIRNRPPRLPRPRPRPFYFPRP | -0.718 |

| Sequence | shrunken log2 fold change |
| --- | --- |
| RRIRIRPPRLPRPRPRPSYHPRP | -0.933 |
| RRIRNRPPRLPRPRPRPDETPRP | -0.00208 |
| RRIRRRPPRLPRPRPRPFGYPRP | -0.018 |
| RRIRSRPPRLPRPRPRPHVIPRP | -0.6 |
| RRIRDRPPRLPRPRPRPELMPRP | 1.68 |
| RRIRGRPPRLPRPRPRPLELPRP | 0.741 |
| RRIRLRPPRLPRPRPRPAYCPRP | -0.088 |
| RRIRLRPPRLPRPRPRPCMKPRP | -0.101 |
| RRIRFRPPRLPRPRPRPFEGPRP | 0.0456 |
| RRIRDRPPRLPRPRPRPAMLPRP | 0.278 |
| RRIRDRPPRLPRPRPRPYVMPRP | -0.342 |
| RRIRSRPPRLPRPRPRPYFAPRP | -0.645 |
| RRIRPRPPRLPRPRPRPQAWPRP | 0.179 |
| RRIRVRPPRLPRPRPRPPKFPRP | 0.133 |
| RRIRERPPRLPRPRPRPTWQPRP | 0.0759 |
| RRIRIRPPRLPRPRPRPWYLPRP | -0.166 |
| RRIRNRPPRLPRPRPRPIPRPRP | 0.0496 |
| RRIRNRPPRLPRPRPRPHHSPRP | 0.0657 |
| RRIRWRPPRLPRPRPRPERWPRP | 1.14 |
| RRIRDRPPRLPRPRPRPLEDPRP | -0.00783 |

| Sequence | shrunken log2 fold change |
| --- | --- |
| RRIRYRPPRLPRPRPRPETEPRP | 0.0184 |
| RRIRRRPPRLPRPRPRPEQDPRP | 0.727 |
| RRIRRRPPRLPRPRPRPLGHPRP | 0.203 |
| RRIRIRPPRLPRPRPRPDHHPRP | -1.37 |
| RRIRARPPRLPRPRPRPTSTPRP | 0.0502 |
| RRIRSRPPRLPRPRPRPPQEPRP | 0.295 |
| RRIRLRPPRLPRPRPRPVSEPRP | 0.172 |
| RRIRARPPRLPRPRPRPWRKPRP | 0.0387 |
| RRIRRRPPRLPRPRPRPWCSPRP | -0.0123 |
| RRIRKRPPRLPRPRPRPIKEPRP | -0.0178 |
| RRIRQRPPRLPRPRPRPRFEPRP | 0.0165 |
| RRIRDRPPRLPRPRPRPWHVPRP | 0.015 |
| RRIRRRPPRLPRPRPRPGANPRP | 0.208 |
| RRIRARPPRLPRPRPRPKRQPRP | 0.0749 |
| RRIRQRPPRLPRPRPRPDWAPRP | -0.012 |
| RRIRNRPPRLPRPRPRPIQEPRP | -0.0116 |
| RRIRNRPPRLPRPRPRPRFMPRP | -0.098 |
| RRIRERPPRLPRPRPRPGFFPRP | -0.191 |
| RRIRCRPPRLPRPRPRPNFLPRP | -0.265 |
| RRIRYRPPRLPRPRPRPPEMPRP | 0.123 |

Reference: the supplement of paper PMC9112550, “Optimization of the antimicrobial peptide Bac7 by deep mutational scanning” (BMC Biology, 2022)
